From PMC3256971 (The Journal of Experimental Medicine, 2011)
One block for each molecule: values may come before it.

Experiments:
B16A-dKO mice = experiment: Immunization and IL-2 ELISPOT in B16A-dKO mice; assay type: in vivo, mouse; settings: 10 nmol in CFA, restimulation at 10 µM, Fig. 4 c
I-A^g7 [1] = settings: ref Yu et al., 2000; Levisetti et al., 2007; cited from earlier work
I-A^g7 [2] = settings: ref Yu et al., 2000; Levisetti et al., 2007; cited from earlier work; remark: listed apart in the source
soluble I-A^g7 (mouse) [3] = experiment: radioligand binding
soluble I-A^g7 (mouse) [4] = experiment: SDS stability of the complex

Molecule: SHLVEALYLVCGERG [B:9–23]
IL-2 ELISPOT response to register 1 after immunization (B16A-dKO mice): detected a response to register 1 similar to that found in NOD mice
binding affinity to I-A^g7 (I-A^g7 [1]): very low affinity
rate of dissociation from I-A^g7 (I-A^g7 [2]): fast rate of dissociation

Molecule: nested B:12–21 peptide with flanking residues
IC50 (soluble I-A^g7 (mouse) [3]): 500 nM

Molecule: TEGVEALYLVCGGGS [nested register 1:12–20 peptide (insulin B:12–20 with flanking residues)]
IC50 (soluble I-A^g7 (mouse) [3]): 1400 nM

Second part, the molecule after the results:

percent of the bound peptide lost in the first 20 min (soluble I-A^g7 (mouse) [3]): > 50%
Molecule: radioactive peptide bearing the nested register 1:12–20 sequence (added N-terminal tyrosine, B16 tyrosine to phenylalanine)

percent SDS stable (soluble I-A^g7 (mouse) [4]): 70%
Molecule: radioactive peptide bearing the nested register 2:13–21 sequence (added N-terminal tyrosine, B16 tyrosine to phenylalanine)

IC50 (soluble I-A^g7 (mouse) [3]): 5500 nM
Molecule: TEGALYLVCGERGGS [nested register 3:14–22 peptide (insulin B:14–22 with flanking residues)]

IC50 (soluble I-A^g7 (mouse) [3]): 700 nM
Molecule: TEGEALYLVCGEGGS [nested register 2:13–21 peptide (insulin B:13–21 with flanking residues)]
